Laboratory results published in patent US20080125498A1, “TREATMENT OF NEURODEGENERATIVE DISEASES AND CONDITIONS USING PAR1 ANTAGONISTS” (priority 2001, published 2008).

Key:
Assay in all cases: cell-based or functional assay
[1] = target: recombinant NR1 subunit in NR1/NR2A and NR1/NR2B NMDA receptors expressed in Xenopus oocytes
[2] = target: protease-activated receptor 1 (PAR1), rat, endogenous in hippocampal neurons (rat) (UniProt P26824)
alpha-thrombin = target: alpha-thrombin

Sequence of protease-activated receptor 1 (PAR1), rat, endogenous in hippocampal neurons (rat) (P26824 46-432): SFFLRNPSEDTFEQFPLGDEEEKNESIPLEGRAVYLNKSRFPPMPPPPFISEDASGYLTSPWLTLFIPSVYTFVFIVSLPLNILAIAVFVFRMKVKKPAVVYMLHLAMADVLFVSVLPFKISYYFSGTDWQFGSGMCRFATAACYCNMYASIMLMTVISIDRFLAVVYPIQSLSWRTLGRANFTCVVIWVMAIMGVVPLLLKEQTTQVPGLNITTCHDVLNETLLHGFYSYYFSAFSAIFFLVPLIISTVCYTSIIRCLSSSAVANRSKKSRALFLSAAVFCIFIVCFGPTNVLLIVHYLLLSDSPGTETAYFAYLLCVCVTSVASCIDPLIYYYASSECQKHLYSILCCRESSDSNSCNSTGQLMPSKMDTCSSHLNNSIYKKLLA

Substance | NMDA receptor current response amplitude in oocytes after 300-1000 nM thrombin for 60 minutes [1] [%] | average peak potentiation of NMDA responses in CA1 pyramidal cells at -40 mV in 1.4 mM Mg2+ [2] [fold] | average peak potentiation of NMDA responses in CA1 pyramidal cells at -70 mV in 1.4 mM Mg2+ [2] [fold] | peak potentiation of NMDA responses at -70 mV in CA1 pyramidal neurons [2] [fold] | potentiation by thrombin of NMDA responses in the presence of hirudin (alpha-thrombin) [fold]
alpha-thrombin (enzyme) | 42 | 1.48 | 2.1 | 2.07 | 
hirudin |  |  |  |  | 0.96
